From paper PMC7051176

Target: mannose receptor (MR) (human (endogenous in primary monocyte-derived macrophages)) (UniProt P22897)

## HIV-1 89.6 Env (from UniProt Q73372) (natural protein)
  infection of primary human MDM by wild-type HIV-1 89.6 (intracellular Gag stain) with increasing concentrations of soluble mannan, normalized to 0 mg/mL mannan: 16 fold
